{
  "source": "paper doi:10.1101/2023.10.23.563687",
  "molecular_target": "full-length BCL6 construct overexpressed in HEK293T cells (ternary complex nanoBRET) (UniProt P41182)",
  "data": [
    {"substance": "full-length CDK9 construct overexpressed in HEK293T cells (ternary complex nanoBRET) (from UniProt P50750 1-372) (enzyme)", "values": [
      {"measurement": "cell killing of SUDHL5 DLBCL cells by CDK-TCIP1, 72-hour cell viability assay", "value": 6.9, "unit": "nM"}
    ]}
  ]
}
